Assay results reported in patent US20120042399A1.

Assays:
[1] = biological target: PASD1(1) (…) presented by the HHD chimeric monochain MHC class I molecule (human; mouse)
[2] = biological target: PASD1(1) (…) presented by the HHD chimeric monochain MHC class I molecule (human; mouse); remark: listed apart in the source
[3] = biological target: PASD1(2) (…) presented by the HHD chimeric monochain MHC class I molecule (human; mouse)
[4] = biological target: PASD1(1) (…) presented by the HHD chimeric monochain MHC class I molecule (human; mouse); remark: listed apart in the source

## splenocytes from HHD mice vaccinated with p.DOM-PASD1(1) (cells without a defined receptor)
[1]
  IFNγ-secreting spot-forming cells ex vivo (ELISPOT) (SFCs/10^6 cells): 117
[2]
  specific lysis of KMS-12-HHD cells (51Cr release assay): < 40%

## splenocytes from HHD mice vaccinated with p.DOM-PASD1(2) (cells without a defined receptor)
[3]
  IFNγ-secreting spot-forming cells ex vivo (ELISPOT) (SFCs/10^6 cells): 53

## splenocytes from HHD mice vaccinated with p.DOM-PASD1FL (cells without a defined receptor)
[4]
  IFNγ-secreting spot-forming cells ex vivo (ELISPOT) (SFCs/10^6 splenocytes): 756
